How the values were obtained:
[1] = target: T1, human ASGR-1 carbohydrate binding domain (CBD) (148-291) (human, UniProt P07306 148-291); assay: X-ray crystal structure of the complex, 2.6 A
T1 construct: also called ASGR-1 CBD; ASGR-1 CRD
T1 sequence: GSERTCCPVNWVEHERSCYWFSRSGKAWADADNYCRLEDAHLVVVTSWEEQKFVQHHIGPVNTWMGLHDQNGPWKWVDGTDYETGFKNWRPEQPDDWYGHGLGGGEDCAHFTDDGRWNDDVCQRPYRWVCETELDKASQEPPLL
Text: 2. The dataset was collected from a single crystal on beamline ID22 at the Argonne National Laboratory and processed with XDS/CCP4;
4. The 194C10 Fab/ASGR-1 CBD complex structure was solved by molecular replacement with the program Phaser; and […]

Human ASGR-2 = target: T2, Human ASGR-2 (human, UniProt P07307 1-311); assay: FACS on transfected HEK 293 cells; Y = signal at least 2x irrelevant IgG
T2 construct: Expressed on HEK 293 cells; cDNA GenBank NM_080913.3; also called huASGR-2; hASGR-2
T2 sequence: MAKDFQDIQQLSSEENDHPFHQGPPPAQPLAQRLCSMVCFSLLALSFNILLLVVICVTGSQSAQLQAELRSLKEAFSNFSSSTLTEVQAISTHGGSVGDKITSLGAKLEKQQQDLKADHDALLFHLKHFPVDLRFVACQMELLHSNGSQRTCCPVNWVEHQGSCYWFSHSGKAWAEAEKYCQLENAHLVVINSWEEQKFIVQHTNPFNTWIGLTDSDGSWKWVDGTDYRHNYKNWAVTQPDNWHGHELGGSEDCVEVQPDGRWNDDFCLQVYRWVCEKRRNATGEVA
Procedure: Human ASGR-1-specific, ligand competing antibody samples were tested for binding to ASGR-1 from other species (cynomologus monkey ASGR-1, mouse ASGR-1, rat ASGR-1, dog ASGR-1, and pig ASGR-1) as well as to human ASGR-2 in FACS binding assays at normalized antibody concentrations. For cell-based assays, HEK 293 cells expressing the appropriate antigen of interest were mixed with antibody sample or controls, incubated for 1 hour at 4° C., and then washed twice. Cells with bound antibody were then incubated with Alexa Fluor® 647 IgG Fc fragment-specific detection antibody and 7-AAD viability stain for 15 minutes at 4° C., washed once and resuspended in FACS buffer. Samples were analyzed using a BD Accuri™ Flow Cytometer and an Intellicyt HyperCyt Autosampler. As a negative control, supernatants and controls were also screened against HEK 293 cells transfected with empty parental vector. […] For membrane-prep binding assays, ASGR-1 species specific membrane preps were used to coat LumAvidin® microspheres (beads) and tested for binding to selected hybridoma supernatants or controls. Briefly, ASGR-1 species specific membrane preps were incubated with streptavidin-coated LumAvidin® beads for 45 minutes in the dark at room temperature and washed twice. Beads were resuspeneded in FACS buffer containing Stabilguard®. […] Samples were analyzed using an Intellicyt iQue™ Screener Platform. […]

Cyno ASGR-1 = target: T3, Cyno ASGR-1 (cynomolgus monkey, UniProt P07306 1-291 (human entry)); assay: FACS on transfected HEK 293 cells or membrane preps on beads; Y = signal at least 2x irrelevant IgG
T3 construct: Expressed on HEK 293 cells or as membrane prep on beads; cDNA from XP_005582755; also called cynomologus monkey ASGR-1
T3 chain: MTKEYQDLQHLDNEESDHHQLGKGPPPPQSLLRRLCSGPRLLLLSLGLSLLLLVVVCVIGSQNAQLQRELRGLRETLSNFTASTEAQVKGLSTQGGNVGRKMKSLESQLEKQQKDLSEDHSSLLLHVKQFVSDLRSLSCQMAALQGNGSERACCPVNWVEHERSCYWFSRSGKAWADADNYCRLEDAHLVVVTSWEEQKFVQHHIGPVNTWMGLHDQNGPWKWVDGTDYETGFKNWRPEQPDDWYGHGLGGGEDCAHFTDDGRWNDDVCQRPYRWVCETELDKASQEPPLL
Procedure: (§1) Human ASGR-1-specific, ligand competing antibody samples were tested for binding to ASGR-1 from other species (cynomologus monkey ASGR-1, mouse ASGR-1, rat ASGR-1, dog ASGR-1, and pig ASGR-1) as well as to human ASGR-2 in FACS binding assays at normalized antibody concentrations. For cell-based assays, HEK 293 cells expressing the appropriate antigen of interest were mixed with antibody sample or controls, incubated for 1 hour at 4° C., and then washed twice. Cells with bound antibody were then incubated with Alexa Fluor® 647 IgG Fc fragment-specific detection antibody and 7-AAD viability stain for 15 minutes at 4° C., washed once and resuspended in FACS buffer. Samples were analyzed using a BD Accuri™ Flow Cytometer and an Intellicyt HyperCyt Autosampler. As a negative control, supernatants and controls were also screened against HEK 293 cells transfected with empty parental vector. […] For membrane-prep binding assays, ASGR-1 species specific membrane preps were used to coat LumAvidin® microspheres (beads) and tested for binding to selected hybridoma supernatants or controls. Briefly, ASGR-1 species specific membrane preps were incubated with streptavidin-coated LumAvidin® beads for 45 minutes in the dark at room temperature and washed twice. Beads were resuspeneded in FACS buffer containing Stabilguard®. Antigen-bound beads were then incubated with normalized antibody sample for 1 hour in the dark at room temperature, washed twice, incubated with Alexa Fluor® 488 IgG Fc fragment-specific detection antibody for 15 minutes in the dark at room temperature, washed once and finally resuspended in FACS buffer. Samples were analyzed using an Intellicyt iQue™ Screener Platform. FACS buffer supplemented with 1 mM Calcium Chloride was used in all steps. As a negative control, supernatants and controls were also screened against a non-ASGR-1 antigen membrane prep coated on the LumAvidin® beads.

Dog ASGR-1 = target: T4, Dog ASGR-1 (dog); assay: as above
T4 construct: Expressed on HEK 293 cells or as membrane prep on beads; cDNA GenBank XM_546579
T4 chain: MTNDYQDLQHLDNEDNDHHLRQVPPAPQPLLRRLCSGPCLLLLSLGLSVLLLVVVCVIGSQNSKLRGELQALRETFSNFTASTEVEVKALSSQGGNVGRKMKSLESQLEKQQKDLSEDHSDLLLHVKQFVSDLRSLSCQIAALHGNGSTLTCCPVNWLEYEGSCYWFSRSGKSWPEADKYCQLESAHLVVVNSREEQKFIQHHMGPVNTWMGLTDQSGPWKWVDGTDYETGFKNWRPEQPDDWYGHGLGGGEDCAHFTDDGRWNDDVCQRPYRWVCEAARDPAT
Procedure: as §1

Pig ASGR-1 = target: T5, Pig ASGR-1 (pig); assay: as above
T5 construct: Expressed on HEK 293 cells or as membrane prep on beads; cDNA GenBank NM_001244458
T5 chain: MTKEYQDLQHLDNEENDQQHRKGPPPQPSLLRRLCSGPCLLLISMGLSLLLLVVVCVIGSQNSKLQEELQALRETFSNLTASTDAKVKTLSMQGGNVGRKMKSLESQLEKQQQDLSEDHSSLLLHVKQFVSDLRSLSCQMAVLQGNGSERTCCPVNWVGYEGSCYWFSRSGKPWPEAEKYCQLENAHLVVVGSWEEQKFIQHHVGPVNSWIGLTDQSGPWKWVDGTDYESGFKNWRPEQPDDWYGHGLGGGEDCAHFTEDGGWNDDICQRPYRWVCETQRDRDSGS
Procedure: as §1

Soluble ASGR-1 = target: T6, Soluble ASGR-1 (human, UniProt P07306 62-291, biotinylated); assay: limited antigen binding assay; biotinylated soluble ASGR-1 coated at 2.5 ng/mL on LumAvidin beads, FACS
T6 construct: Soluble recombinant protein; also called recombinant, soluble ASGR-1 biotinylated protein
T6 sequence: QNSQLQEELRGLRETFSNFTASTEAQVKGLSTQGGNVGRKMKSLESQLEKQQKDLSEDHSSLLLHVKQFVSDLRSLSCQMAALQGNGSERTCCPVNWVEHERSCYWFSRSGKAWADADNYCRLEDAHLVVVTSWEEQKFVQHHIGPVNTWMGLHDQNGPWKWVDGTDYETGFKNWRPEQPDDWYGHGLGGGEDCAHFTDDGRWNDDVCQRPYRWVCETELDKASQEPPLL
Procedure: To assess antibody and antigen interaction strength (relative binding affinity), ASGR-1 specific, ligand competing antibody hybridoma supernatants were tested in a limiting antigen binding assay. Titrated amounts of recombinant, soluble ASGR-1 biotinylated protein was incubated with streptavidin-coated LumAvidin Beads® for 45 minutes in the dark at room temperature and washed twice. Beads were resuspeneded in FACS buffer containing Stabilguard® and 0.05% Sodium Azide. Antigen-bound beads were then incubated with normalized hybridoma supernatant sample or controls for 18 hours in the dark at room temperature, washed twice, incubated with Alexa Fluor® 488 IgG fragment-specific detection antibody for 15 minutes in the dark at room temperature, washed once and finally resuspended in FACS buffer. Samples were analyzed using an Intellicyt iQue™ Screener Platform. FACS buffer supplemented with 1 mM Calcium Chloride was used in all steps. […] In this assay method, the antibody binding signal correlates with antibody affinity. Antibody binding data for a representative antigen coating concentration that fell in the linear range of the instrument signal detection is shown in Table 7.2. The degree of antibody binding to the target (ASGR-1) correlates with the measured fluorescent intensity and thus allows a relative comparison of affinities across the panel.

Mouse ASGR-1 = target: T7, Mouse ASGR-1 (mouse, UniProt P34927 1-284); assay: FACS on transfected HEK 293 cells or membrane preps on beads; binding = signal at least 2x irrelevant IgG
T7 construct: Expressed on HEK 293 cells or as membrane prep on beads; cDNA GenBank BC022106.1; also called muASGR-1; mASGR-1
T7 sequence: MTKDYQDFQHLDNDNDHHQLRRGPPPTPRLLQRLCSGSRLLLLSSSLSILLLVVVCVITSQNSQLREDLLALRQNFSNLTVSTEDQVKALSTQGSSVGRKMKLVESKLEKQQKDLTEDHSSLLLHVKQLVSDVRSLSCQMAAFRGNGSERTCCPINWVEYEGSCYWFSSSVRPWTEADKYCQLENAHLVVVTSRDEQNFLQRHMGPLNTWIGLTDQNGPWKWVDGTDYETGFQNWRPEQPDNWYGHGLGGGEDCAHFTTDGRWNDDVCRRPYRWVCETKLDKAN
Procedure: as §1

[2] = target: T8, human ASGR-1 (full length, expressed on cells) (human, UniProt P07306 1-291); assay: flow cytometry; biotinylated ligand on CHO-S cells stably expressing ASGR-1, detected with streptavidin-AF647
T8 construct: single point mutants were made in the CBD in the context of full-length ASGR-1; also called hASGR-1; huASGR-1
T8 sequence: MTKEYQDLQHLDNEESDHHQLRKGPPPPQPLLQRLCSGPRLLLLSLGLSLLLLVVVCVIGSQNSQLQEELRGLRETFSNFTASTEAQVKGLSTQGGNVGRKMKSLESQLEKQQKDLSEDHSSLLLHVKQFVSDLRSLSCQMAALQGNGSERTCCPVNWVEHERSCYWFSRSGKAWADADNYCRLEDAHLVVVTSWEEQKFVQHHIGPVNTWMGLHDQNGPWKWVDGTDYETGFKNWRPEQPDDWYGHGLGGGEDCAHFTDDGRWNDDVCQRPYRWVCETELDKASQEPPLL

[3] = target: T1, human ASGR-1 carbohydrate binding …; assay: X-ray crystal structure of the complex, 2.1 A
[4] = target: T1, human ASGR-1 carbohydrate binding …; assay: X-ray crystal structure, legend of FIG. 25

B1: 194C10 Fab (Fab, V domains shown)
VH: QVQLQQWGAGLLKPSETLSLTCAVSGGSFRYYYWSWIRQPPGKGLEWFGEINHAGSTNYNPSLKSRVTISIDTSKNQFSLKLRSVTAADTAVYYCARDYGAFDIWGQGTMVTVSS
VL: EIVLTQSPGTLSLSPGERATLSCRASPSVNSGYLAWYQQKPGQTPRLLIFGASSRATGIPDRFSASGSGADFTLTISRLEPEDFAVYFCQQYESSPWTFGQGTKVEIKR
notes: also called Fab fragment of 194C10
binding result [1]: binds

B2: 7F4 (antibody, V domains shown)
VH: QLQLQESGPGLVKPSETLSLTCTVSGGSISRSSYYWGWIRQPPGKGLEWIGNIYYSGATYYNPSLKSRVTISVDTSTNQFSLKLSSVTAADTAVYYCARHSGSWSLDYWGQGTLVTVSS
VL: DIQMTQSPSSLSASVGDRVTITCRTSQGIRNDLGWYQQKPGKAPKRLIYAASNLQSGVPSRFSGSGSGTEFTLTISSLQPEDFATYYCLQHSAYPLTFGGGTKVEIK
notes: Tested as hybridoma supernatant at normalized concentration
binding result (Human ASGR-2): binds
binding result (Cyno ASGR-1): binds
binding result (Dog ASGR-1): binds
binding result (Pig ASGR-1): binds
FACS Geomean (Soluble ASGR-1): 4910 FACS Geomean
binding result (Mouse ASGR-1): no binding

B3: desialylated, biotinylated asialofetuin (bovine fetuin, AHSG) (ligand, UniProt P12763 19-359, looked up)
chain: IPLDPVAGYKEPACDDPDTEQAALAAVDYINKHLPRGYKHTLNQIDSVKVWPRRPTGEVYDIEIDTLETTCHVLDPTPLANCSVRQQTQHAVEGDCDIHVLKQDGQFSVLFTKCDSSPDSAEDVRKLCPDCPLLAPLNDSRVVHAVEVALATFNAESNGSYLQLVEISRAQFVPLPVSVSVEFAVAATDCIAKEVVDPTKCNLLAEKQYGFCKGSVIQKALGGEDVRVTCTLFQTQPVIPQPQPDGAEAEAPSAVPDAAGPTPSAAGPPVASVVVGPSVVAVPLPLHRAHYDLRHTFSGVASVESSSGEAFHVGKTPIVGQPSIPGGPVRLCPGRIRYFKI
modifications: desialated with C. perfringens and A. ureafaciens neuraminidases; biotinylated with Innolink Biotin 354S
notes: also called bn-asialofetuin; protein ligand
EC50 [2]: 10.7 nM

B4: 22G5 Fab (Fab, V domains shown)
VH: EVQLLESGGGLVQPGGSLRLSCAASGFTFSSYAMNWVRQAPGMGLEWVSVISRSGGYTYYADSVKGRFTISRDNSKNTLYLQMNSLRAEDTAVYYCASRLAVAGSEAFDIWGQGTLVTVSS
VL: DIQMTQSPSSLSASVGDRVTITCRASQNISSYLNWYQQKQGKAPKLLIYAASSLQNGVPSRFSGRGSGTDFTLTISSLQPEDFATYYCQQSYRTPLFTFGPGTKVDFK
modifications: N-acetylglucosamine (NAG100) is listed among the light chain boundary residues
notes: Made by cleaving the 22G5-IgG4 mAb with papain; also called Fab fragment of 22G5
binding result [3]: binds

B5: 4A2 Fab (Fab, V domains shown)
VH: QVQLVQSGTEVKKPGASVKVSCKASGYTFTNYDINWVRQATGQGLEWMGWMHPNSGNTGYAQKFQGRVTLTRDTSISTAYMELSSLRSEDTAVYYCASSSGWYYFDYWGQGTLVTVSS
VL: DIVMTQSPDSLAVSLGERATINCKSSQSILHSSNNNNYLAWFQQKPGQPPKLLLYWASTRESGVPDRFSGSGSGTDFTLTISSLQPEDVAVYYCQQYYNTPVTFGPGTKVGIKR
notes: Expressed directly as a Fab, with a double stop codon at the end of the CH1 domain; also called Fab fragment of 4A2
binding result [4]: binds

— patent publication US20190248902A1 (published 2019)
